Source: patent US8530235B2, “Medium that supports culture of an oocyte and modulation of granulosa cell apoptosis” (Adelaide Research & Innovation Pty Ltd., priority 2005, dated 2013)

Legend:
Bcl-2 and Bax proteins = assay: Western blot of Bcl-2 and Bax expression in OOX cumulus cells; format: cell-based, Bovine; conditions: OOX 24 h; for ratio of Bcl-2 to Bax: 132 ng/ml GDF-9, 10% v/v BMP-15 or 35 DO/well
Protocol: Following culture treatments, OOX complexes were lysed in […] RIPA lysis buffer (10 mM Tris [pH 7.4], 150 mM NaCl, 1 mM EDTA, 1% Trinton X-100 and stored at −80° C., for detection of apoptotic proteins using the sensitive Enhanced Chemiluminescence (ECl) Advance system (Amersham Biosciences, Ontario, Canada). Thawed lysates were mixed with 4× loading buffer containing 100 mM Dithiothretol (DTT) and subjected to SDS-PAGE (12% polyacrylamide gel). Proteins were subsequently electrotransferred to nitrocellulose membranes (Hybond-ECl, Amersham life Science, Ontario, Canada.) in 25 mM Tris-192 mM glycine containing 20% methanol. Blots were blocked in 20 mM Tris (pH 7.6) containing 13.7 mM NaCl, 1% Tween-20, and 2% blocking agent (provided in ECl Advance Kit) for 1 hr at RT, then incubated overnight with Bcl-2 or Bax rabbit polyclonal antibodies (0.35 μg/ml; Santa Cruz Biotechnology, Calif., USA) at 4° C., followed by incubation with horseradish peroxidase-conjugated anti-rabbit antibody (1:200 000; Silemus laboratories, Melbourne, Australia). Images were then scanned using a flat bed scanner and the intensity of Bcl-2 and Bax bands in each sample was quantitated by the ImageJ Imaging System Software version 1.3 (National Institutes of Health, USA).
This experiment was conducted to confirm that treatment effects on CC apoptosis, as assessed by TUNEL, are concomitant with changes in expression of key proteins regulating cell death and survival. OOX were cultured for 24 h untreated, or treated with 132 ng/ml GDF-9, 10% v/V BMP-15, co-cultured with 35 DO/well, or 10% 293H (control conditioned medium), and then subjected to Western blot for analysis of Bcl-2 and Bax expression.

cumulus-oocyte complexes = assay: Study IV: oocyte developmental competence after IVM, IVF and embryo culture; format: cell-based, Bovine; conditions: for blastocyst yields with exogenous factor / effect on cleavage rate: Experiments 3 & 4; for blastocyst yields with exogenous factor: 175 ng/ml GDF9 or 10% v/v BMP15; for effect on cleavage rate: 4 μM SB-431542, 175 ng/ml GDF9, 10% v/v BMP15, 10% v/v 293H
Protocol: Unless otherwise specified, all chemicals and reagents were purchased from Sigma (St Louis, Mo.). Bovine ovaries were collected from local abattoirs and transported to the laboratory in warm saline (30-35° C.). COCs were aspirated from antral follicles (3 to 5 mm diameter) using an 18-gauge needle and a 10-ml syringe containing ˜2 ml aspiration medium (Hepes-buffered. Tissue Cultured Medium-199; TCM-199. ICN Biochemicals, Irvine, Calif., USA) supplemented with 50 μg/ml kanamycin, 0.5 mM sodium pyruvate, 50 μg/ml heparin and 4 mg/ml fatty acid-free bovine serum albumin (FAF-BSA; ICPbio Ltd, Aukland, NZ). Intact COCs with compact cumulus vestments>˜5 cell layers and evenly pigmented cytoplasm were selected under a dissecting microscope and washed twice in Hepes-buffered TCM-199 and once in Hepes-buffered TCM-199 supplemented with 10% fetal calf serim (FCS) (Invitrogen, Carlsbad, Calif.). The basic medium for oocyte maturation was Bovine VitroMat (Cook Australia, Eight Mile Plains, Qld, Australia), a medium based on the ionic composition of bovine follicular fluid. […] Complexes were cultured in pre-equilibrated 300 ? l drops overlaid with mineral oil and incubated at 39° C. with 5% CO2 in humidified air for 24 hour. […]
Recombinant mouse GDF9 and recombinant ovine BMP15 were produced and partially purified in-house as previously described using transfected 293 human embryonic kidney cell lines (293H) originally donated by O. Ritvos (University of Helsinki). Control conditioned medium (hereafter designated ‘293H’) was produced from untransfected 293H cells and subjected to the same chromatography procedures as GDF9 and BMP15 conditioned media.
Consequently, SB-431542 potently antagonizes the ALK 4/5 ligands; TGF-β1, the activins and GDF9, without affecting BMP signalling (Inman et al., 2002; Gilchrist et al., 2006). […] Follistatin-288 was generously donated by S. Shimasaki (University of California San Diego, USA) and we have previously shown that this binding protein antagonizes the bioactivities of native OSFs and recombinant BMP15 in CCs.
In vitro production of embryos was undertaken using defined, serum-free media (Bovine Vitro series of media, Cook Australia). Frozen semen from a single bull of proven fertility was used in all experiments. Briefly, thawed semen was layered over a discontinuous (45%: 90%) Percoll gradient (Amersham Bioscience) and centrifuged (RT) for 20-25 mins at 700 g. The supernatant was removed and the sperm pellet was washed with 500 μl Bovine VitroWash (Cook Australia) and centrifuged for a further 5 minutes at 200 g. Spermatozoa were resuspended with IVF medium (Bovine VitroFert, Cook Australia), then added to the fertilization media drops (Bovine VitroFert, supplemented with 0.01 mM heparin, 0.2 mM penicillamine and 0.1 mM hypotaurine) at a final concentration of 1×106 spermatozoa/ml. COCs were inseminated at a density of 10 μl of IVF medium per COC for 24 h, at 39° C. in 6% CO2 in humidified air.
CCs were removed by gentle pipetting 23-24 h post insemination and five presumptive zygotes were transferred into 20 μl drops of pre-equilibrated Cook Bovine VitroCleave medium (Cook Australia) and cultured under mineral oil at 38.5° C. in 7% O2, 6% CO2, balance N2, for five days (day 1 to day 5).
On Day 5, embryos were transferred in groups of 5-6 to 20 μl drops of pre-equilibrated Bovine VitroBlast (Cook Australia) at 38.5° C. overlaid with mineral oil and cultured to Day 8. Embryos were assessed for quality at Day 8 according to the definitions presented in the Manual of the International Embryo Transfer Society (Stringfellow, 1998) and were performed independently and blinded by an experienced bovine embryologist.
Cell counts were performed using a modified version of the technique described by (Fouladi-Nashta et al., 2005). […]

B1: GDF-9: Recombinant mouse GDF-9 produced in-house in transfected 293H cells, partially purified by HIC (protein, UniProt Q07105 307-441, looked up)
Growth/differentiation factor …: GQKAIRSEAKGPLLTASFNLSEYFKQFLFPQNECELHDFRLSFSQLKWDNWIVAPHRYNPRYCKGDCPRAVRHRYGSPVHTMVQNIIYEKLDPSVPRPSCVPGKYSPLSVLTIEPDGSIAYKEYEDMIATRCTCR
B1 was tested, and the “ratio of Bcl-2 to Bax” value (Bcl-2 and Bax proteins) was “no effect”, the blastocyst yield (cumulus-oocyte complexes; Experiment 2, 175 ng/ml GDF9, with or without 10% v/v BMP15) was “increased (P<0.05) blastocyst yield compared to 293H-treated COCs, but not compared to COCs cultured alone” and the “blastocyst yields with exogenous factor” value (cumulus-oocyte complexes) was “increased blastocyst yields”. For the same molecule, the “effect on cleavage rate” value (cumulus-oocyte complexes) was “did not significantly alter cleavage rates”.

B2: BMP-15: Recombinant ovine BMP-15 produced in-house in transfected 293H cells, partially purified by hydrophobic interaction chromatography; dosed as % v/v (protein, UniProt Q9MZE2 269-393, looked up)
Bone morphogenetic protein 15: QAGSIASEVPGPSREHDGPESNQCSLHPFQVSFQQLGWDHWIIAPHLYTPNYCKGVCPRVLHYGLNSPNHAIIQNLVSELVDQNVPQPSCVPYKYVPISILLIEANGSILYKEYEGMIAQSCTCR
For B2, the “ratio of Bcl-2 to Bax” value (Bcl-2 and Bax proteins) was “alter the ratio of Bcl-2 to Bax in favour of cell survival”, the “expression of Bax protein in CC” value (Bcl-2 and Bax proteins; 10% v/v BMP-15 or 35 DO/well) was “barely detectable” and the “expression of Bcl-2 protein in CC” value (Bcl-2 and Bax proteins; 10% v/v BMP-15 or 35 DO/well, compared to untreated or GDF-9) was “significantly (P<0.001) higher”. For the same molecule, the “enhancement of development to the blastocyst stage compared to 293H-treated COCs” value (cumulus-oocyte complexes; 10% v/v BMP15 during IVM) was 30%, the “enhancement of development to the blastocyst stage compared to control COCs” value (cumulus-oocyte complexes; 10% v/v BMP15 during IVM) was 16% and the “blastocyst yields with exogenous factor” value (cumulus-oocyte complexes) was “increased blastocyst yields”. The “effect on cleavage rate” value (cumulus-oocyte complexes) was “did not significantly alter cleavage rates”.
